Results reported in FireProtDB (doi:10.1021/bi026827i).

Settings: Saccharomyces cerevisiae (strain ATCC 204508 / S288c); pH 7; 25 °C; GdnHCl; CD; Tris 20 mM; NaCl 40 mM; structure 1YCC

Cytochrome c isoform 1 K60Q|K61Q, P00044 K60Q K61Q, sequence (P00044 whole entry K60Q/K61Q, canonical isoform): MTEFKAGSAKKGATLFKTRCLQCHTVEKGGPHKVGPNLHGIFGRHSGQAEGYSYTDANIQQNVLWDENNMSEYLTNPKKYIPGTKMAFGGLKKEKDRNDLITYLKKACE
Cytochrome c isoform 1 K28Q, P00044, sequence (P00044 whole entry K28Q, canonical isoform): as the sequence (P00044 whole entry K60Q/K61Q, canonical isoform) above, with K28Q, Q60K, Q61K counted along it
Cytochrome c isoform 1 K17Q, P00044, sequence (P00044 whole entry K17Q, canonical isoform): as the sequence (P00044 whole entry K60Q/K61Q, canonical isoform) above, with K17Q, Q60K, Q61K counted along it
Cytochrome c isoform 1 K33Q, P00044, sequence (P00044 whole entry K33Q, canonical isoform): as the sequence (P00044 whole entry K60Q/K61Q, canonical isoform) above, with K33Q, Q60K, Q61K counted along it
Cytochrome c isoform 1 K10Q|K11Q, P00044 K10Q K11Q, sequence (P00044 whole entry K10Q/K11Q, canonical isoform): as the sequence (P00044 whole entry K60Q/K61Q, canonical isoform) above, with K10Q, K11Q, Q60K, Q61K counted along it

Substance	denaturant m value [kcal/mol/M]	denaturant midpoint (higher = more stable) [M]	unfolding free energy [kcal/mol]
Cytochrome c isoform 1 K10Q|K11Q, P00044 K10Q K11Q	3.06	1.05	3.2
Cytochrome c isoform 1 K17Q, P00044	5.33	0.64	3.37
Cytochrome c isoform 1 K33Q, P00044	3.7	1.09	4.04
Cytochrome c isoform 1 K28Q, P00044	3.2	0.94	2.96
Cytochrome c isoform 1 K60Q|K61Q, P00044 K60Q K61Q	3.06	0.99	3.04
